Reference: patent publication US20140255299A1 (UNIVERSITY OF CENTRAL FLORIDA RESEARCH FOUNDATION, published 2014)

B1: Bax C-terminal 20-residue peptide, lysines replaced with leucines (charge neutralization mutant) (peptide)
peptide: VTIFVAGVLTASLTIWLLMG
notes: K189/K190 replaced by LL; also called CT20 Bax LL; CT20-LL
B2: Bax C-terminal 20-residue peptide (CT20p), wild type (peptide)
peptide: Ac-VTIFVAGVLTASLTIWKKMG-NH2
notes: Synthetic peptide of the last 20 amino acids of Bax; also called CT20 Bax WT; CT20 peptide
B3: Bax C-terminal 20-residue peptide, lysines replaced with glutamates (charge reversal mutant) (peptide)
peptide: VTIFVAGVLTASLTIWEEMG
notes: K189/K190 replaced by EE; also called CT20 Bax EE; CT20-EE

Target: the molecule itself
Test: kinetics of calcein release from lipid vesicles; peptide self-association within the membrane

Binding result, binds:
B1
B2
B3
